Reference: patent publication US20220125891A1 (OSAKA UNIVERSITY, published 2022)
Like-named read-outs stand apart in the source and are kept apart here. Positions of bridges follow the written chain, without caps; N, C: chain ends. Non-standard residues stand in square brackets, D forms with d. No end group written: not given here. NMeA = CN[C@@H](C)C(=O)O; dNMeA = CN[C@H](C)C(=O)O

T1: full-length human Regnase-1 with a FLAG tag on the N-terminal side and a biotin ligase BirA recognition … (human, UniProt Q5D1E8 1-599, biotinylated where required ; Biotinylated at the BirA recognition sequence where required. That sequence is not in the letters.)
T1 construct: Expressed in Expi293 cells, purified on FLAG M2 agarose and by gel filtration; also called full-length Regnase-1; human full-length Regnase-1
T1 sequence: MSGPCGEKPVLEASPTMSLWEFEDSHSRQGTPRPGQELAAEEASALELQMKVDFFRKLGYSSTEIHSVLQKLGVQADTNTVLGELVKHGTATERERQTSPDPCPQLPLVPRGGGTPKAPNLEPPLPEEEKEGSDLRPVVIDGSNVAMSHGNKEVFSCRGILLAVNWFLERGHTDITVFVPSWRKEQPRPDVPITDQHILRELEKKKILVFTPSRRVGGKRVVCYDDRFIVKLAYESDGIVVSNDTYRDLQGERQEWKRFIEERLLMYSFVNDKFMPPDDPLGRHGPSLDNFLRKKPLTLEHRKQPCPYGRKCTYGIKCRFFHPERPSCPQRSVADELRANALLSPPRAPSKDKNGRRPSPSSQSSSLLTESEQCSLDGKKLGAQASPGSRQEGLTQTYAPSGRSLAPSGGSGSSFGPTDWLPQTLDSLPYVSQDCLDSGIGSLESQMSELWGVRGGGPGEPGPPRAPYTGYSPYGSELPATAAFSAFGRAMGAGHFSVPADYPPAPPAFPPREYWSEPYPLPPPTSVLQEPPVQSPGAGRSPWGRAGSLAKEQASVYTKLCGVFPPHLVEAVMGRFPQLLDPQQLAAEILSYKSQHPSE

T2: Reg1_301-599 (human Regnase-1 amino acids 301 to 599, FLAG tag on the N-terminal side, BirA recognition … (human))
T2 sequence (Q5D1E8 301-599, looked up): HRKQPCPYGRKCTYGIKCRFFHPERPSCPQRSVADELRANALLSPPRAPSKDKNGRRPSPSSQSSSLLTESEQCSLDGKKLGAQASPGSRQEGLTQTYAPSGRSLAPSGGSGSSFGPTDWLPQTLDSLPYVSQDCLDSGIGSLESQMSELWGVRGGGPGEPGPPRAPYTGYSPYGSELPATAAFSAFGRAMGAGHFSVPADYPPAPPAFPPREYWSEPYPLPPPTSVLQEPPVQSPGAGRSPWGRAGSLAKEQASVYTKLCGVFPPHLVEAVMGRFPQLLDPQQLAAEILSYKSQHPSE


What was measured:
[1] = biological target: T1, full-length human Regnase-1 with a FLAG …; assay: flow cytometry of antigen-coated streptavidin beads
[2] = biological target: T1, full-length human Regnase-1 with a FLAG …; assay: cell-based or functional assay
[3] = biological target: T3, ΔCTD_Reg1 (human Regnase-1 amino acids 1 to 546, FLAG tag on the N-terminal side, BirA recognition sequence … (human)); assay: cell-based or functional assay
[4] = biological target: T1, full-length human Regnase-1 with a FLAG …; assay: cell-based or functional assay; remark: listed apart in the source
[5] = biological target: T3, ΔCTD_Reg1 (human Regnase-1 amino acids …); assay: cell-based or functional assay; remark: listed apart in the source
[6] = biological target: T2, Reg1_301-599 (human Regnase-1 amino …); assay: cell-based or functional assay
[7] = biological target: T1, full-length human Regnase-1 with a FLAG …; assay: cell-based or functional assay; remark: listed apart in the source
[8] = biological target: T3, ΔCTD_Reg1 (human Regnase-1 amino acids …); assay: cell-based or functional assay; remark: listed apart in the source
[9] = biological target: T2, Reg1_301-599 (human Regnase-1 amino …); assay: cell-based or functional assay; remark: listed apart in the source
[10] = biological target: T1, full-length human Regnase-1 with a FLAG …; assay: AlphaScreen, blocks IKKβ binding to FL_Reg1
[11] = biological target: T1, full-length human Regnase-1 with a FLAG …; assay: AlphaScreen, blocks TBK1 binding to FL_Reg1
[12] = biological target: T1, full-length human Regnase-1 with a FLAG …; assay: AlphaScreen, blocks TBK1 binding to FL_Reg1; remark: listed apart in the source
[13] = biological target: T1, full-length human Regnase-1 with a FLAG …; assay: AlphaScreen, blocks IKKβ binding to FL_Reg1; remark: listed apart in the source
[14] = biological target: T1, full-length human Regnase-1 with a FLAG …; assay: affinity selection-MS (SEC, LC/MS), 1 µM each

Binder	binding result [1]	IC50, phosphorylation by IKKβ [2] [µM]	IC50, phosphorylation by TBK1 [2] [µM]	IC50, phosphorylation by IKKβ [3] [µM]	IC50, phosphorylation by TBK1 [3] [µM]	IC50, phosphorylation by TBK1 [4] [µM]	IC50, phosphorylation by TBK1 [5] [µM]	IC50, phosphorylation by TBK1 [6] [µM]	IC50, phosphorylation by IKKβ [7] [µM]	IC50, phosphorylation by IKKβ [8] [µM]	IC50, phosphorylation by IKKβ [9] [µM]	IC50 [10] [µM]	IC50 [11] [µM]	IC50 [12] [µM]	IC50 [13] [µM]	AS-MS ratio(%) [14] [%]
[dNMeA]KHASAWYRIWD (lactam N-12) [PP3]	–	4.6	3.9	8.3	5.7	3.9	5.7	7.1	4.6	8.3	6.8	8.3	3.1	3.1	8.3	1.2
[NMeA]HSNAWYNIWD (lactam N-11) [PP5]	–	23.6	24.2	20.4	19.1	24.2	19.1	40.4	23.6	20.4	31.3	24	11.5	11.5	24	20.8
[NMeA]TSWYKVNWGQD (lactam N-12) [PP1]	–	28.1	54.5	> 62.1	> 62.1	54.5	> 62.1	> 62.1	28.1	> 62.1	> 62.1	> 62.1	> 62.1	> 62.1	> 62.1	21.8
[NMeA]GYANSWYNIWD (lactam N-12) [PP2]	–	16.6	21.7	14	17.6	21.7	17.6	22.4	16.6	14	18.5	35.8	15.5	15.5	35.8	14.2
[NMeA]YIWDFFGDLD (lactam N-11) [PP4]	–	19.5	61.9	8.3	44.9	61.9	44.9	35.9	19.5	8.3	12.8	47.7	24.4	24.4	47.7	37.5

The next lines start with the values.

binding result [1]	IC50, phosphorylation by IKKβ [2] [µM]	IC50, phosphorylation by TBK1 [2] [µM]	IC50, phosphorylation by IKKβ [3] [µM]	IC50, phosphorylation by TBK1 [3] [µM]	IC50, phosphorylation by TBK1 [4] [µM]	IC50, phosphorylation by TBK1 [5] [µM]	IC50, phosphorylation by TBK1 [6] [µM]	IC50, phosphorylation by IKKβ [7] [µM]	IC50, phosphorylation by IKKβ [8] [µM]	IC50, phosphorylation by IKKβ [9] [µM]	IC50 [10] [µM]	IC50 [11] [µM]	IC50 [12] [µM]	IC50 [13] [µM]	AS-MS ratio(%) [14] [%]	Binder
binds	–	–	–	–	–	–	–	–	–	–	–	–	–	–	–	REB0007 (antibody, V domains shown, Rabbit antibody gene expressed in HEK293 cells, purified by Protein A; also called anti-Regnase-1 antibody; anti-non-phosphorylated Regnase-1 peptide antibody) VH: QEQLEESGGDLVKPEGSLTLTCTASGFSFNSRYWICWVRQAPGKGLEWIGCIVSGDSNTYYASWAKGRFTISKTSSTTVTLQMTSLTAADTATYFCARWYTSSRPGLWGPGTLVTVSS VL: DVVMTQTPASVSEPVGGTVTIKCQASQSISSYLSWYQQKPGQPPKLLIYSATNLASGVSSRFKGSRFGTEFTLTISDLECDDAATYYCQCSYYVSGFAFGGGTEVVVKG
binds	–	–	–	–	–	–	–	–	–	–	–	–	–	–	–	REB0022 (antibody, V domains shown, Rabbit antibody gene expressed in HEK293 cells, purified by Protein A; also called anti-Regnase-1 antibody; anti-non-phosphorylated Regnase-1 peptide antibody) VH: QEQLEESGGDLVKPEGSLTLTCTASGGSFSSRYWMCWVRQAPGKGLEWIACIVIGDRNNYYASWAKGRFTISKTSSTTVTLQMTSLTAADTATYFCARWHSSTAPSLWGPGTLVTVSS VL: DVVMTQTPASVSEPVGGTVTINCQASQSISSYLSWYQQKPGQPPKLLIYKASTLASGVSSRFKGSGSGTEFTLTISDLECADAATYYCQCSYYVSGFVFGGGTEVVVKG
–	17	13.1	20.3	14.5	13.1	14.5	16.8	17	20.3	17.5	42.1	19.2	19.2	42.1	6.4	[dNMeA]PNSSWFKIWD (lactam N-11) [PP6]
binds	–	–	–	–	–	–	–	–	–	–	–	–	–	–	–	REB0014 (antibody, V domains shown, Rabbit antibody gene expressed in HEK293 cells, purified by Protein A; also called anti-Regnase-1 antibody; anti-non-phosphorylated Regnase-1 peptide antibody) VH: QSLEESGGGLVKPGGTLTLTCKASGIDFSSYYYMCWVRQAPGKGLEWIACIYSGDGSSYYVSWANGRFTISKTSSATVTLQMTSLTAADTATYFCARDLGNLWGPGTLVTVSS VL: QVLTQTPASVSAAVGGTVTINCQASQSVYKNSGLSWFQQKPGQSPKRLIYSASTLDSGVPSRFKGSGSGTQFTLTISDVQCDDAATYYCLGIYVCSSVDCGAFGGGTEVVVKG
–	–	–	–	–	18.8	29.7	30.7	25.6	> 62.1	> 62.1	–	–	9.2	41.3	28.6	[dNMeA]PTSSWYKIWD (lactam N-11) [PP23]
–	–	–	–	–	24.3	22.8	25.8	15	34	31	–	–	11.4	26.8	14.5	[NMeA]NSWYRIWGLD (lactam N-11) [PP22]
